This note sets out measurements from US20240317847A1 (Bayer, published 2024).

One assay concerns the target T1, human IL2Ra (human, UniProt P01589 22-240, limits assumed).
T1 construct: bought protein, coated on the plate; also called hIL2RA; IL-2 receptor alpha
T1 sequence (looked up): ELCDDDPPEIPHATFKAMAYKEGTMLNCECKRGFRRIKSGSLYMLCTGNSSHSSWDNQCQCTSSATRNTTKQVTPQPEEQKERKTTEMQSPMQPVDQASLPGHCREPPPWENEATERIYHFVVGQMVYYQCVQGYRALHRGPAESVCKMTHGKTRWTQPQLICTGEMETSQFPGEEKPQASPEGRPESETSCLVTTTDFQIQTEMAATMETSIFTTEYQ
Nature of the assay: IL2Ra direct binding ELISA, signal ratio to isotype control. The procedure:
IL2RA (Peprotech, Germany, #200-02RC) was coated at 1 or 0 μg/ml (buffer only control) in 30 μl coating buffer (Candor, #113500) per well on a 384 well microtiter plate (Maxisorb, Nunc, #460518) over night at 4-8° C. After two washes with 50 μl/well washing buffer (PBS+0.05% Tween, pH 7.4), the plates were incubated for two hours at room temperature with 50 μl/well SmartBlock (Candor, #113500). After blocking, the plates were washed three times with washing buffer. Then, a dilution series of the respective antibody (1E-7 [M] down to 2E-13 [M]) in PBS+0.05% Tween, 10% SmartBlock were added in 30 μl to the microtiter plate and incubated for 90 min at room temperature. After three additional washes, 30 μl anti mouse IgG HRP-conjugated antibody (Biotechne, HAF007), diluted 1:1000 in PBS+0.05% Tween (pH 7.4), were added per well and incubated for one hour. After three additional washes, a mixture of Amplex red (Invitrogen, #12222, 10 mM stock solution in DMSO) 1:1000 diluted in PBS and H2O2 (30%, Merck, #107209)) diluted 1:10000 in PBS were added as substrate with 30 μl per well and incubated for 20 min in the dark. Relative fluorescence was measured with a microtiter plate reader at 535/590 nm.
Next, the 42 antibodies were subjected to an IL2Ra binding ELISA as described in Example 20.
(In general: ELISA stands for enzyme-linked immunosorbent assay.)

The next assay concerns the target T2, human IL-11 (human, UniProt P20809 22-199).
T2 sequence: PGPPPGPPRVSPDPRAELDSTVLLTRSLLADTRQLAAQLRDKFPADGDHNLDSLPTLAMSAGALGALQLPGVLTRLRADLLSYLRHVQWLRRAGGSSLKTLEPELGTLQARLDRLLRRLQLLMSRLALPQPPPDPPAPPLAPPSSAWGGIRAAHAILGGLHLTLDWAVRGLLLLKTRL
Nature of the assay: cell-based or functional assay.

A further assay addresses T3, murine IL-11 (mouse, UniProt P47873 22-199).
T3 sequence: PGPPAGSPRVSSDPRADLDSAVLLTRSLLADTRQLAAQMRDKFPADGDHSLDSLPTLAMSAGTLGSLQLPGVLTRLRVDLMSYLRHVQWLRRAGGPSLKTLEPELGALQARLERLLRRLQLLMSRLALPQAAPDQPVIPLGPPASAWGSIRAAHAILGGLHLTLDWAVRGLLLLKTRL
Nature of the assay: cell-based or functional assay.

B1: TPP-26291 (antibody, V domains shown)
VH: EVQLLESGGGLVQPGGSLRLSCAASGFTFSSYGMHWVRQAPGKGLEWVSVISYDGSYKYYADSVKGRFTISRDNSKNTLYLQMNSLRAEDTAVYYCAAGVPDYWGQGTLVTVSS
VL: QSVLTQPPSASGTPGQRVTISCTGSSSNIGAGYDVHWYQQLPGTAPKLLIYSNNERPSGVPDRFSGSKSGTSASLAISGLRSEDEADYYCAAWDPSLNGPVFGGGTKLTVL
On to B1, for which the “hIL2RA ELISA Binding: Ratio to Isotpye” value with human IL2Ra amounted to 334 ratio. Also, in the assay with human IL-11, the “RGA Efficacy (%)” value was 68.9% and the “RGA IC50” value came to 4.1 nM. Also, in the assay with murine IL-11, the “RGA Efficacy (%)” value was 92.1% and the “RGA IC50” value worked out at 1.6 nM.

B2: TPP-26296 (antibody, V domains shown)
VH: EVQLLESGGGLVQPGGSLRLSCAASGFTFSSYGMHWVRQAPGKGLEWVSVISYDGSYKYYADSVKGRFTISRDNSKNTLYLQMNSLRAEDTAVYYCAAGVPDYWGQGTLVTVSS
VL: QSVLTQPPSASGTPGQRVTISCTGSSSNIGAGYDVHWYQQLPGTAPKLLIYSNNERPSGVPDRFSGSKSGTSASLAISGLRSEDEADYYCAAWDNSLNGPVFGGGTKLTVL
B2: the “hIL2RA ELISA Binding: Ratio to Isotpye” value with human IL2Ra was 379 ratio. Also, in the assay with human IL-11, the “RGA Efficacy (%)” value was determined as 71% and the “RGA IC50” value stood at 20 nM. In the assay with murine IL-11, the “RGA Efficacy (%)” value turned out to be 93.1% and the “RGA IC50” value was 2.9 nM.

B3: TPP-26299 (antibody, V domains shown)
VH: EVQLLESGGGLVQPGGSLRLSCAASGFTFSSYGMHWVRQAPGKGLEWVSVISYDGSYKYYADSVKGRFTISRDNSKNTLYLQMNSLRAEDTAVYYCAAGVPDYWGQGTLVTVSS
VL: QSVLTQPPSASGTPGQRVTISCTGSSSNIGAGYDVHWYQQLPGTAPKLLIYSNNERPSGVPDRFSGSKSGTSASLAISGLRSEDEADYYCAAWDDSLYGPVFGGGTKLTVL
For the molecule B3, in the assay with human IL2Ra, the “hIL2RA ELISA Binding: Ratio to Isotpye” value was 96 ratio. In the assay with human IL-11, the “RGA Efficacy (%)” value stood at 70.1% and the “RGA IC50” value is 3.1 nM. Further, in the assay with murine IL-11, the “RGA Efficacy (%)” value turned out to be 96.9% and the “RGA IC50” value was determined as 0.94 nM.

B4: TPP-26295 (antibody, V domains shown)
VH: EVQLLESGGGLVQPGGSLRLSCAASGFTFSSYGMHWVRQAPGKGLEWVSVISYDGSYKYYADSVKGRFTISRDNSKNTLYLQMNSLRAEDTAVYYCAAGVPDYWGQGTLVTVSS
VL: QSVLTQPPSASGTPGQRVTISCTGSSSNIGAGYDVHWYQQLPGTAPKLLIYSNNERPSGVPDRFSGSKSGTSASLAISGLRSEDEADYYCAAWDHSLNGPVFGGGTKLTVL
As to B4, the “hIL2RA ELISA Binding: Ratio to Isotpye” value in the assay with human IL2Ra stood at 385 ratio. Also, in the assay with human IL-11, the “RGA Efficacy (%)” value was 69.2% and the “RGA IC50” value is 13 nM. In the assay with murine IL-11, the “RGA Efficacy (%)” value came to 93.9% and the “RGA IC50” value was 2.1 nM.

B5: TPP-26297 (antibody, V domains shown)
VH: EVQLLESGGGLVQPGGSLRLSCAASGFTFSSYGMHWVRQAPGKGLEWVSVISYDGSYKYYADSVKGRFTISRDNSKNTLYLQMNSLRAEDTAVYYCAAGVPDYWGQGTLVTVSS
VL: QSVLTQPPSASGTPGQRVTISCTGSSSNIGAGYDVHWYQQLPGTAPKLLIYSNNERPSGVPDRFSGSKSGTSASLAISGLRSEDEADYYCAAWQDSLNGPVFGGGTKLTVL
For B5, the “hIL2RA ELISA Binding: Ratio to Isotpye” value with human IL2Ra amounted to 183 ratio. Moreover, in the assay with human IL-11, the “RGA Efficacy (%)” value is 57.1% and the “RGA IC50” value was found to be 3.7 nM. Moreover, in the assay with murine IL-11, the “RGA Efficacy (%)” value came to 93.5% and the “RGA IC50” value worked out at 1.8 nM.

B6: TPP-26292 (antibody, V domains shown)
VH: EVQLLESGGGLVQPGGSLRLSCAASGFTFSSYGMHWVRQAPGKGLEWVSVISYDGSYKYYADSVKGRFTISRDNSKNTLYLQMNSLRAEDTAVYYCAAGVPDYWGQGTLVTVSS
VL: QSVLTQPPSASGTPGQRVTISCTGSSSNIGAGYDVHWYQQLPGTAPKLLIYSNNERPSGVPDRFSGSKSGTSASLAISGLRSEDEADYYCAAWDESLNGPVFGGGTKLTVL
As to B6, the “hIL2RA ELISA Binding: Ratio to Isotpye” value with human IL2Ra was determined as 557 ratio. Further, the “RGA Efficacy (%)” value with human IL-11 came to 74%; with murine IL-11, 94.7%. The “RGA IC50” value in the assay with human IL-11 was found to be 5.6 nM; with murine IL-11, 0.94 nM.

B7: TPP-26298 (antibody, V domains shown)
VH: EVQLLESGGGLVQPGGSLRLSCAASGFTFSSYGMHWVRQAPGKGLEWVSVISYDGSYKYYADSVKGRFTISRDNSKNTLYLQMNSLRAEDTAVYYCAAGVPDYWGQGTLVTVSS
VL: QSVLTQPPSASGTPGQRVTISCLGSSSNIGAGYDVHWYQQLPGTAPKLLIYSNNERPSGVPDRFSGSKSGTSASLAISGLRSEDEADYYCAAWDDSLNGPVFGGGTKLTVL
In the case of B7, the “hIL2RA ELISA Binding: Ratio to Isotpye” value with human IL2Ra is 474 ratio. The “RGA Efficacy (%)” value came out at 62.9% with human IL-11 and 96.3% with murine IL-11. Besides, the “RGA IC50” value with human IL-11 stood at 4.1 nM; with murine IL-11 it was 1.5 nM.

B8: TPP-26302 (antibody, V domains shown)
VH: EVQLLESGGGLVQPGGSLRLSCAASGFTFSSYGMHWVRQAPGKGLEWVSVISYDGSYKYYADSVKGRFTISRDNSKNTLYLQMNSLRAEDTAVYYCAAGVPDYWGQGTLVTVSS
VL: QSVLTQPPSASGTPGQRVTISCTGSSSNIGAGYDVHWYQQLPGTAPKLLIYSNNERPSGVPDRFSGSKSGTSASLAISGLRSEDEADYYCSAWDDSLNGPVFGGGTKLTVL
As for B8, the “hIL2RA ELISA Binding: Ratio to Isotpye” value with human IL2Ra turned out to be 522 ratio. Also, in the assay with human IL-11, the “RGA Efficacy (%)” value was 65.8% and the “RGA IC50” value stood at 22 nM. In the assay with murine IL-11, the “RGA Efficacy (%)” value amounted to 94.3% and the “RGA IC50” value came to 1.1 nM.

B9: TPP-26293 (antibody, V domains shown)
VH: EVQLLESGGGLVQPGGSLRLSCAASGFTFSSYGMHWVRQAPGKGLEWVSVISYDGSYKYYADSVKGRFTISRDNSKNTLYLQMNSLRAEDTAVYYCAAGVPDYWGQGTLVTVSS
VL: QSVLTQPPSASGTPGQRVTISCTGSSSNIGAWYDVHWYQQLPGTAPKLLIYSNNERPSGVPDRFSGSKSGTSASLAISGLRSEDEADYYCAAWDDSLNGPVFGGGTKLTVL
B9: the “hIL2RA ELISA Binding: Ratio to Isotpye” value with human IL2Ra amounted to 384 ratio. Further, in the assay with human IL-11, the “RGA Efficacy (%)” value amounted to 73.7% and the “RGA IC50” value is 2.8 nM. For the same molecule, in the assay with murine IL-11, the “RGA Efficacy (%)” value came to 96.9% and the “RGA IC50” value amounted to 0.95 nM.

B10: TPP-26300 (antibody, V domains shown)
VH: EVQLLESGGGLVQPGGSLRLSCAASGFTFSSYGMHWVRQAPGKGLEWVSVISYDGSYKYYADSVKGRFTISRDNSKNTLYLQMNSLRAEDTAVYYCAAGVPDYWGQGTLVTVSS
VL: QSVLTQPPSASGTPGQRVTISCTGSSSNIGAGYDVHWYQQLPGTAPKLLIYSNNERPSGVPDRFSGSKSGTSASLAISGLRSEDEADYYCAAWDSSLNGPVFGGGTKLTVL
Turning to B10, in the assay with human IL2Ra, the “hIL2RA ELISA Binding: Ratio to Isotpye” value was determined as 447 ratio. In the assay with human IL-11, the “RGA Efficacy (%)” value worked out at 75.5% and the “RGA IC50” value was 3.3 nM. Besides, in the assay with murine IL-11, the “RGA Efficacy (%)” value was 94.9% and the “RGA IC50” value is 1.1 nM.

B11: TPP-26294 (antibody, V domains shown)
VH: EVQLLESGGGLVQPGGSLRLSCAASGFTFSSYGMHWVRQAPGKGLEWVSVISYDGSYKYYADSVKGRFTISRDNSKNTLYLQMNSLRAEDTAVYYCAAGVPDYWGQGTLVTVSS
VL: QSVLTQPPSASGTPGQRVTISCTGSSSNIGAAYDVHWYQQLPGTAPKLLIYSNNERPSGVPDRFSGSKSGTSASLAISGLRSEDEADYYCAAWDDSLNGPVFGGGTKLTVL
On to B11, for which, in the assay with human IL2Ra, the “hIL2RA ELISA Binding: Ratio to Isotpye” value came out at 275 ratio. In the assay with human IL-11, the “RGA Efficacy (%)” value worked out at 69.4% and the “RGA IC50” value turned out to be 9.8 nM. Besides, in the assay with murine IL-11, the “RGA Efficacy (%)” value came out at 97.9% and the “RGA IC50” value is 1.5 nM.
